Here are results for eight sequences from the Immune Epitope Database (IEDB).

As usually defined, the Kd is the free concentration of one partner at which half of the binding sites on the other are occupied at equilibrium, for simple one-to-one binding. Low readings indicate higher affinity, high ones lower affinity.

Experiment [1] addresses HLA-A*26:01. Description: IEDB peptide-MHC binding, purified MHC/direct/fluorescence; filed as Kd, often an IC50 or EC50 that approximates it; ≥ and ≤ were set here for values at or beyond the usual limits of such assays.
The target in experiment [2] is HLA-A*26:02. Description: IEDB peptide-MHC binding, purified MHC/competitive/fluorescence; filed as Kd, often an IC50 or EC50 that approximates it; ≥ and ≤ were set here for values at or beyond the usual limits of such assays. The settings on record: source organism: Hantaan virus 76-118.
Experiment [3] has as its target HLA-C*08:02. Description: IEDB peptide-MHC binding, purified MHC/direct/fluorescence; filed as Kd, often an IC50 or EC50 that approximates it; ≥ and ≤ were set here for values at or beyond the usual limits of such assays.
Experiment [4] deals with HLA-A*02:01. The experiment in a line: IEDB peptide-MHC binding, purified MHC/competitive/fluorescence; filed as Kd, often an IC50 or EC50 that approximates it; ≥ and ≤ were set here for values at or beyond the usual limits of such assays. The settings on record: source organism: Yersinia pestis Nepal516.
For experiment [5], the target named is HLA-B*35:01. Described as above. The settings on record: source organism: Yersinia pestis Nepal516.
The target in experiment [6] is HLA-A*02:01. Description: IEDB peptide-MHC binding, purified MHC/direct/fluorescence; filed as Kd, often an IC50 or EC50 that approximates it; ≥ and ≤ were set here for values at or beyond the usual limits of such assays.
For experiment [7], the target named is HLA-A*69:01. Described as above.
Experiment [8] addresses HLA-A*80:01. Described as above. The settings on record: source organism: Yellow fever virus.
Experiment [9] addresses HLA-A*01:01. The experiment is described as above.
Experiment [10] deals with HLA-A*03:01. Described as above.
The target in experiment [11] is HLA-A*11:01. The description is as above.
For experiment [12], the target named is HLA-A*24:02. The experiment is described as above. The settings on record: source organism: Influenza A virus (A/G.H/HK/793.1/02 (H5N1)).
For experiment [13], the target named is HLA-B*07:02. Described as above.
In experiment [14] the target is HLA-B*08:01. The experiment is described as above.
Experiment [15] has as its target HLA-B*15:01. Described as above.
Experiment [16] concerns the target HLA-B*15:09. Described as above.
The target of experiment [17] is HLA-B*18:01. Described as above.
In experiment [18] the target is HLA-B*27:05. Described as above.
Experiment [19] has as its target HLA-B*40:01. The experiment is described as above.
Experiment [20] concerns the target HLA-B*44:02. Described as above. The settings on record: source organism: Influenza A virus (A/G.H/HK/793.1/02 (H5N1)).
Experiment [21] concerns the target HLA-B*46:01. The description is as above.
Experiment [22] deals with HLA-B*58:01. The experiment is described as above.
The target of experiment [23] is HLA-A*02:03. The description is as above. The settings on record: source organism: Crocodilepox virus.
Experiment [24] addresses HLA-A*02:11. The description is as above. The settings on record: source organism: Crocodilepox virus.
Experiment [25] deals with HLA-A*02:12. The experiment is described as above. The settings on record: source organism: Crocodilepox virus.
The target of experiment [26] is HLA-A*02:16. The description is as above. The settings on record: source organism: Crocodilepox virus.
In experiment [27] the target is HLA-A*02:19. The experiment is described as above. The settings on record: source organism: Crocodilepox virus.
Experiment [28] addresses HLA-A*24:03. The description is as above. The settings on record: source organism: Crocodilepox virus.
For experiment [29], the target named is HLA-A*68:02. The experiment is described as above. The settings on record: source organism: Crocodilepox virus.
For experiment [30], the target named is HLA-B*27:03. The experiment is described as above. The settings on record: source organism: Crocodilepox virus.
The target of experiment [31] is HLA-B*39:01. The experiment is described as above.
Experiment [32] concerns the target HLA-B*51:01. Described as above. The settings on record: source organism: Crocodilepox virus.
In experiment [33] the target is HLA-B*57:01. The experiment is described as above.
For experiment [34], the target named is HLA-A*31:01. The description is as above. The settings on record: source organism: Influenza A virus (A/swine/Korea/S190/2004(H9N2)).
The target of experiment [35] is HLA-B*15:17. Described as above. The settings on record: source organism: Influenza A virus (A/swine/Korea/S190/2004(H9N2)).
Experiment [36] deals with HLA-B*38:01. Described as above. The settings on record: source organism: Influenza A virus H3N2.
In experiment [37] the target is HLA-B*48:01. The experiment is described as above. The settings on record: source organism: Influenza A virus (A/swine/Korea/S190/2004(H9N2)).
Experiment [38] addresses HLA-A*02:03. The experiment in a line: IEDB peptide-MHC binding, purified MHC/competitive/fluorescence; filed as Kd, often an IC50 or EC50 that approximates it; ≥ and ≤ were set here for values at or beyond the usual limits of such assays. The settings on record: source organism: Influenza A virus (A/swine/Italy/1521/98(H1N2)).
The mark [39] stands for this setting: source organism: Yellow fever virus.
Where [40] appears, read: source organism: Influenza A virus (A/G.H/HK/793.1/02 (H5N1)).
Where [41] appears, read: source organism: Crocodilepox virus.
Where [42] appears, read: source organism: Influenza A virus (A/swine/Korea/S190/2004(H9N2)).
Setting [43] is: source organism: Influenza A virus H3N2.

Consider ETYKELKAH, for which the figures for the Kd in [1] (source organism: Orthohantavirus hantanense) and in experiment [2] were 0.25 µM and 0.0118 µM, respectively.
Regarding FVADYLARF, the Kd was determined as 2.77 µM in experiment [3] (source organism: Yersinia pestis Nepal516), 0.082 µM in [4] and 0.0033 µM in experiment [5].
In the case of GTGDSRLTY, the dissociation constant (Kd) in experiment [6] (setting [39]) was at least 20 µM; in experiment [7] (setting [39]) it was at least 20 µM; in experiment [8], 0.2 µM.
Turning to GVEGIGLQY, the Kd in [8] turned out to be 0.338 µM.
As for RRKTNLYGF, the Kd in [9] (setting [40]), in experiment [6] (setting [40]), in [10] (setting [40]), in experiment [11] (setting [40]), in experiment [12] and in experiment [13] (setting [40]) was at least 20 µM in each case. For the same sequence, the Kd in experiment [14] (setting [40]) was at least 20 µM; in [15] (setting [40]), at least 20 µM; in experiment [16] (source organism: Influenza A virus (A/Taiwan/2/2006(H1N1))), at least 20 µM; in [17] (setting [40]) it was at least 20 µM; in experiment [18] (source organism: Influenza A virus (A/Puerto Rico/8/34/Mount Sinai(H1N1))) it was 0.021 µM; in experiment [19] (setting [40]), at least 20 µM. Also, the dissociation constant Kd in [20], in experiment [21] (setting [40]) and in [22] (setting [40]) was at least 20 µM in each case.
On to STAPTGSWF, for which the Kd in experiment [3] (source organism: human gammaherpesvirus 4) is at least 20 µM.
With VVARLGVPY, the dissociation constant (Kd) in experiment [6] (setting [41]), in experiment [23], in [24], in [25], in experiment [26] and in experiment [27] was at least 20 µM throughout. The dissociation constant Kd in experiment [10] (setting [41]), in [28], in [1] (setting [41]), in experiment [29], in experiment [30] and in [31] (setting [41]) was at least 20 µM throughout. Further, the Kd in [32] and in experiment [33] (setting [41]) was at least 20 µM throughout.
In the case of WIPKRNRSI, the dissociation constant (Kd) in experiment [9] (setting [42]), in [6] (setting [42]), in [10] (setting [42]), in experiment [11] (setting [42]), in experiment [34] and in experiment [7] (setting [42]) was at least 20 µM each time. Also, the dissociation constant Kd was 0.644 µM in experiment [13] (setting [42]); 0.018 µM in experiment [14] (setting [43]); at least 20 µM in [15] (setting [42]); at least 20 µM in experiment [16] (setting [43]); at least 20 µM in experiment [35]; at least 20 µM in experiment [17] (setting [42]). For the same sequence, the dissociation constant (Kd) in [18] (setting [42]), in experiment [36], in experiment [31] (setting [43]), in experiment [19] (setting [42]), in experiment [21] (setting [42]) and in [37] was at least 20 µM each time. The equilibrium dissociation constant (Kd) in [33] (setting [42]), in experiment [22] (setting [42]) and in [38] was at least 20 µM each time.
